The supplement of paper PMC9112550, “Optimization of the antimicrobial peptide Bac7 by deep mutational scanning” (BMC Biology, 2022)

Tested on: Escherichia coli TOP10
Assay: shrunken log2 fold change of peptide-encoding DNA abundance (4.5 h post-induction vs induction); higher = less antimicrobial activity (less host growth inhibition)
Conditions: time post-induction: 4.5 h; library: site-saturation at positions 5, 18, 19, 20
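Also: peptides expressed intracellularly from a pBAD plasmid library in pooled LB shake-flask culture, induced with 0.3% L-arabinose, DNA abundance read by NGS, three biological replicates, DESeq2 with apeglm shrinkage.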

| Sequence | shrunken log2 fold change |
| --- | --- |
| RRIRMRPPRLPRPRPRPVQAPRP | 1.26 |
| RRIRMRPPRLPRPRPRPVQGPRP | 0.0203 |
| RRIRMRPPRLPRPRPRPVSLPRP | 0.422 |
| RRIRMRPPRLPRPRPRPVTAPRP | 0.57 |
| RRIRMRPPRLPRPRPRPVVMPRP | -0.0363 |
| RRIRMRPPRLPRPRPRPVVQPRP | -0.0427 |
| RRIRMRPPRLPRPRPRPVWAPRP | 0.466 |
| RRIRMRPPRLPRPRPRPVWCPRP | -0.0672 |
| RRIRMRPPRLPRPRPRPVYNPRP | -0.17 |
| RRIRMRPPRLPRPRPRPWARPRP | 0.306 |
| RRIRMRPPRLPRPRPRPWAVPRP | 0.396 |
| RRIRMRPPRLPRPRPRPWCEPRP | -0.0233 |
| RRIRMRPPRLPRPRPRPWFMPRP | 0.363 |
| RRIRMRPPRLPRPRPRPWFNPRP | -0.243 |
| RRIRMRPPRLPRPRPRPWHYPRP | -0.327 |
| RRIRMRPPRLPRPRPRPWICPRP | 0.0396 |
| RRIRMRPPRLPRPRPRPWIPPRP | -0.205 |
| RRIRMRPPRLPRPRPRPWKHPRP | -0.109 |
| RRIRMRPPRLPRPRPRPWLMPRP | 0.0599 |
| RRIRMRPPRLPRPRPRPWLTPRP | 0.158 |
| RRIRMRPPRLPRPRPRPWLYPRP | -0.0206 |
| RRIRMRPPRLPRPRPRPWMYPRP | -0.0417 |
| RRIRMRPPRLPRPRPRPWPFPRP | 0.0942 |
| RRIRMRPPRLPRPRPRPWPYPRP | 0.213 |
| RRIRMRPPRLPRPRPRPWRGPRP | 0.497 |

| Sequence | shrunken log2 fold change |
| --- | --- |
| RRIRMRPPRLPRPRPRPWTHPRP | -0.136 |
| RRIRMRPPRLPRPRPRPWVRPRP | 0.0882 |
| RRIRMRPPRLPRPRPRPWVSPRP | -0.0423 |
| RRIRMRPPRLPRPRPRPWYLPRP | -0.0736 |
| RRIRMRPPRLPRPRPRPWYNPRP | -0.044 |
| RRIRMRPPRLPRPRPRPYDVPRP | -0.562 |
| RRIRMRPPRLPRPRPRPYFAPRP | -0.296 |
| RRIRMRPPRLPRPRPRPYFEPRP | -0.318 |
| RRIRMRPPRLPRPRPRPYFRPRP | -0.575 |
| RRIRMRPPRLPRPRPRPYGDPRP | 0.0122 |
| RRIRMRPPRLPRPRPRPYGLPRP | -0.248 |
| RRIRMRPPRLPRPRPRPYGMPRP | 0.162 |
| RRIRMRPPRLPRPRPRPYHDPRP | -0.256 |
| RRIRMRPPRLPRPRPRPYHRPRP | -0.141 |
| RRIRMRPPRLPRPRPRPYKQPRP | -0.000436 |
| RRIRMRPPRLPRPRPRPYLAPRP | -0.0134 |
| RRIRMRPPRLPRPRPRPYNKPRP | -0.561 |
| RRIRMRPPRLPRPRPRPYPIPRP | 0.0414 |
| RRIRMRPPRLPRPRPRPYPSPRP | -0.0577 |
| RRIRMRPPRLPRPRPRPYQCPRP | -0.118 |
| RRIRMRPPRLPRPRPRPYRKPRP | -0.432 |
| RRIRMRPPRLPRPRPRPYRRPRP | 0.0224 |
| RRIRMRPPRLPRPRPRPYSAPRP | 0.0186 |
| RRIRMRPPRLPRPRPRPYTVPRP | 0.0221 |
| RRIRMRPPRLPRPRPRPYWCPRP | -0.0737 |

| Sequence | shrunken log2 fold change |
| --- | --- |
| RRIRMRPPRLPRPRPRPYWPPRP | -0.311 |
| RRIRMRPPRLPRPRPRPYYCPRP | -0.603 |
| RRIRNRPPRLPRPRPRPACGPRP | 0.547 |
| RRIRNRPPRLPRPRPRPADGPRP | 0.085 |
| RRIRNRPPRLPRPRPRPAFGPRP | -0.189 |
| RRIRNRPPRLPRPRPRPAGYPRP | -0.0215 |
| RRIRNRPPRLPRPRPRPAHRPRP | 0.264 |
| RRIRNRPPRLPRPRPRPAKVPRP | -0.0027 |
| RRIRNRPPRLPRPRPRPALCPRP | -0.0208 |
| RRIRNRPPRLPRPRPRPALEPRP | 0.025 |
| RRIRNRPPRLPRPRPRPALTPRP | -0.158 |
| RRIRNRPPRLPRPRPRPALWPRP | -0.15 |
| RRIRNRPPRLPRPRPRPAMEPRP | 0.243 |
| RRIRNRPPRLPRPRPRPAMGPRP | 0.288 |
| RRIRNRPPRLPRPRPRPANMPRP | -0.205 |
| RRIRNRPPRLPRPRPRPANWPRP | 0.182 |
| RRIRNRPPRLPRPRPRPAPQPRP | 0.182 |
| RRIRNRPPRLPRPRPRPARQPRP | 0.304 |
| RRIRNRPPRLPRPRPRPASCPRP | -0.233 |
| RRIRNRPPRLPRPRPRPASDPRP | 0.278 |
| RRIRNRPPRLPRPRPRPASKPRP | 0.0111 |
| RRIRNRPPRLPRPRPRPAVHPRP | -0.0211 |
| RRIRNRPPRLPRPRPRPAVPPRP | -0.165 |
| RRIRNRPPRLPRPRPRPAYPPRP | 0.0183 |
| RRIRNRPPRLPRPRPRPAYQPRP | -0.146 |

| Sequence | shrunken log2 fold change |
| --- | --- |
| RRIRNRPPRLPRPRPRPCCYPRP | -0.0141 |
| RRIRNRPPRLPRPRPRPCDVPRP | 0.0235 |
| RRIRNRPPRLPRPRPRPCETPRP | -0.0224 |
| RRIRNRPPRLPRPRPRPCGWPRP | 0.0822 |
| RRIRNRPPRLPRPRPRPCHIPRP | -0.366 |
| RRIRNRPPRLPRPRPRPCKYPRP | -1.14 |
| RRIRNRPPRLPRPRPRPCLPPRP | -0.217 |
| RRIRNRPPRLPRPRPRPCMCPRP | 0.0188 |
| RRIRNRPPRLPRPRPRPCNCPRP | -0.00865 |
| RRIRNRPPRLPRPRPRPCNQPRP | 0.0223 |
| RRIRNRPPRLPRPRPRPCPAPRP | 0.203 |
| RRIRNRPPRLPRPRPRPCSEPRP | -0.231 |
| RRIRNRPPRLPRPRPRPCSRPRP | -0.0877 |
| RRIRNRPPRLPRPRPRPCWNPRP | -0.429 |
| RRIRNRPPRLPRPRPRPCYFPRP | -0.408 |
| RRIRNRPPRLPRPRPRPDAHPRP | 0.0677 |
| RRIRNRPPRLPRPRPRPDARPRP | 0.222 |
| RRIRNRPPRLPRPRPRPDCRPRP | -0.119 |
| RRIRNRPPRLPRPRPRPDCSPRP | -0.224 |
| RRIRNRPPRLPRPRPRPDEAPRP | 0.27 |
| RRIRNRPPRLPRPRPRPDEMPRP | -0.00822 |
| RRIRNRPPRLPRPRPRPDFFPRP | -0.138 |
| RRIRNRPPRLPRPRPRPDFYPRP | -0.24 |
| RRIRNRPPRLPRPRPRPDHTPRP | -0.0123 |
| RRIRNRPPRLPRPRPRPDIIPRP | -0.0869 |

| Sequence | shrunken log2 fold change |
| --- | --- |
| RRIRNRPPRLPRPRPRPDLNPRP | 0.274 |
| RRIRNRPPRLPRPRPRPDMDPRP | -0.0127 |
| RRIRNRPPRLPRPRPRPDMQPRP | -0.0295 |
| RRIRNRPPRLPRPRPRPDNPPRP | -0.168 |
| RRIRNRPPRLPRPRPRPDPCPRP | -0.145 |
| RRIRNRPPRLPRPRPRPDPPPRP | 0.143 |
| RRIRNRPPRLPRPRPRPDRDPRP | 0.0416 |
| RRIRNRPPRLPRPRPRPDSWPRP | -0.125 |
| RRIRNRPPRLPRPRPRPDTCPRP | -0.279 |
| RRIRNRPPRLPRPRPRPDWKPRP | -0.11 |
| RRIRNRPPRLPRPRPRPDYKPRP | 0.0574 |
| RRIRNRPPRLPRPRPRPEDCPRP | -0.00844 |
| RRIRNRPPRLPRPRPRPEEVPRP | -0.00192 |
| RRIRNRPPRLPRPRPRPEFEPRP | 0.114 |
| RRIRNRPPRLPRPRPRPEFPPRP | 0.0125 |
| RRIRNRPPRLPRPRPRPEIWPRP | 0.0992 |
| RRIRNRPPRLPRPRPRPEKAPRP | -0.0149 |
| RRIRNRPPRLPRPRPRPEKLPRP | -0.00804 |
| RRIRNRPPRLPRPRPRPELIPRP | -0.0327 |
| RRIRNRPPRLPRPRPRPEMYPRP | -0.0311 |
| RRIRNRPPRLPRPRPRPENIPRP | -0.435 |
| RRIRNRPPRLPRPRPRPENKPRP | -0.0669 |
| RRIRNRPPRLPRPRPRPEQVPRP | 0.0249 |
| RRIRNRPPRLPRPRPRPEQYPRP | -0.153 |
| RRIRNRPPRLPRPRPRPEREPRP | 0.256 |

| Sequence | shrunken log2 fold change |
| --- | --- |
| RRIRNRPPRLPRPRPRPERGPRP | 0.296 |
| RRIRNRPPRLPRPRPRPERVPRP | 0.11 |
| RRIRNRPPRLPRPRPRPESGPRP | -0.0271 |
| RRIRNRPPRLPRPRPRPESQPRP | -0.00881 |
| RRIRNRPPRLPRPRPRPESSPRP | -0.00568 |
| RRIRNRPPRLPRPRPRPETFPRP | 0.00884 |
| RRIRNRPPRLPRPRPRPETVPRP | -0.00716 |
| RRIRNRPPRLPRPRPRPEWYPRP | -0.451 |
| RRIRNRPPRLPRPRPRPEYFPRP | -0.0135 |
| RRIRNRPPRLPRPRPRPEYGPRP | -0.284 |
| RRIRNRPPRLPRPRPRPEYLPRP | 0.0183 |
| RRIRNRPPRLPRPRPRPEYVPRP | -0.05 |
| RRIRNRPPRLPRPRPRPFAEPRP | -0.238 |
| RRIRNRPPRLPRPRPRPFALPRP | 0.814 |
| RRIRNRPPRLPRPRPRPFCIPRP | -0.186 |
| RRIRNRPPRLPRPRPRPFCSPRP | -0.0765 |
| RRIRNRPPRLPRPRPRPFCTPRP | -0.351 |
| RRIRNRPPRLPRPRPRPFDNPRP | -0.465 |
| RRIRNRPPRLPRPRPRPFDTPRP | 0.0291 |
| RRIRNRPPRLPRPRPRPFEMPRP | 0.0463 |
| RRIRNRPPRLPRPRPRPFHFPRP | -0.359 |
| RRIRNRPPRLPRPRPRPFINPRP | -1.59 |
| RRIRNRPPRLPRPRPRPFIRPRP | -0.111 |
| RRIRNRPPRLPRPRPRPFKFPRP | -0.423 |
| RRIRNRPPRLPRPRPRPFLMPRP | -0.0732 |
